Numbering of substitutions follows the chain as printed.

To fix the notation:
T1: human CX3CR1 receptor (human, UniProt P49238 1-355)
T1 construct: Expressed on stably transfected HEK or CHO cells, or endogenous on human PBMC (CD8+ T cells, NK cells); also called HEK-CX3CR1 cells; CHO-CX3CR1 cells
T1 sequence: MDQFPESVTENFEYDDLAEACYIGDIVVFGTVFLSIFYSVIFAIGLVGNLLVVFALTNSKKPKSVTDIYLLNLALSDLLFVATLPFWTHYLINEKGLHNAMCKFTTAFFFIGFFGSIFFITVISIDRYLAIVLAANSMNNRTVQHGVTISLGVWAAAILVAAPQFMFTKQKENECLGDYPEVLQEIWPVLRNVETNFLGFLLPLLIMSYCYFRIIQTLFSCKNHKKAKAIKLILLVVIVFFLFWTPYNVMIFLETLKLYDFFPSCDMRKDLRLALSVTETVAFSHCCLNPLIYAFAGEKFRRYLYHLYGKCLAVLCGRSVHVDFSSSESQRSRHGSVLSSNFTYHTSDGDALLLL

B1: phage-displayed CX3CL1 mutant with N-terminal sequence AAQGMS (other, not shown: large carriers)
chain: AAQGMSKCNITCSKMTSKIPVALLIHYQQNQASCGKRAIILETRQHRLFCADPKEQWVKDAMQHLDRQAAALTRNG
notes: Selected phage clone (agonist selection); not tested singly
B2: phage-displayed CX3CL1 mutant with N-terminal sequence NPQALS (other, not shown: large carriers)
chain: B1 chain with A1N, A2P, G4A, M5L
notes: as for B1
B3: phage-displayed CX3CL1 mutant with N-terminal sequence QPMGVA (other, not shown: large carriers)
chain: B1 chain with A1Q, A2P, Q3M, M5V, S6A
notes: as for B1
B4: phage-displayed CX3CL1 mutant with N-terminal sequence QLLGVS (other, not shown: large carriers)
chain: B1 chain with A1Q, A2L, Q3L, M5V
notes: as for B1
B5: phage-displayed CX3CL1 mutant with N-terminal sequence QPQGLA (other, not shown: large carriers)
chain: B1 chain with A1Q, A2P, M5L, S6A
notes: as for B1
B6: phage-displayed CX3CL1 mutant with N-terminal sequence QPSALS (other, not shown: large carriers)
chain: B1 chain with A1Q, A2P, Q3S, G4A, M5L
notes: as for B1
B7: phage-displayed CX3CL1 mutant with N-terminal sequence QFPGVS (other, not shown: large carriers)
chain: B1 chain with A1Q, A2F, Q3P, M5V
notes: as for B1
B8: phage-displayed CX3CL1 mutant with N-terminal sequence QPQAVS (other, not shown: large carriers)
chain: B1 chain with A1Q, A2P, G4A, M5V
notes: as for B1
B9: phage-displayed CX3CL1 mutant with N-terminal sequence QPGAVS (other, not shown: large carriers)
chain: B1 chain with A1Q, A2P, Q3G, G4A, M5V
notes: as for B1
B10: phage-displayed CX3CL1 mutant with N-terminal sequence QPGGVS (other, not shown: large carriers)
chain: B1 chain with A1Q, A2P, Q3G, M5V
notes: as for B1
B11: phage-displayed CX3CL1 mutant with N-terminal sequence QPVAVA (other, not shown: large carriers)
chain: B1 chain with A1Q, A2P, Q3V, G4A, M5V, S6A
notes: as for B1
B12: phage-displayed CX3CL1 mutant with N-terminal sequence QLQGLA (other, not shown: large carriers)
chain: B1 chain with A1Q, A2L, M5L, S6A
notes: as for B1
B13: phage-displayed CX3CL1 mutant with N-terminal sequence QHLGLS (other, not shown: large carriers)
chain: B1 chain with A1Q, A2H, Q3L, M5L
notes: as for B1
B14: phage-displayed CX3CL1 mutant with N-terminal sequence QPHGVA (other, not shown: large carriers)
chain: B1 chain with A1Q, A2P, Q3H, M5V, S6A
notes: as for B1
B15: phage-displayed CX3CL1 mutant with N-terminal sequence QSLGVS (other, not shown: large carriers)
chain: B1 chain with A1Q, A2S, Q3L, M5V
notes: as for B1
B16: phage-displayed CX3CL1 mutant with N-terminal sequence QPYGVS (other, not shown: large carriers)
chain: B1 chain with A1Q, A2P, Q3Y, M5V
notes: as for B1
B17: phage-displayed CX3CL1 mutant with N-terminal sequence QPVGLS (other, not shown: large carriers)
chain: B1 chain with A1Q, A2P, Q3V, M5L
notes: as for B1
B18: phage-displayed CX3CL1 mutant with N-terminal sequence QSPGMS (other, not shown: large carriers)
chain: B1 chain with A1Q, A2S, Q3P
notes: as for B1
B19: phage-displayed CX3CL1 mutant with N-terminal sequence QPYGMS (other, not shown: large carriers)
chain: B1 chain with A1Q, A2P, Q3Y
notes: as for B1
B20: phage-displayed CX3CL1 mutant with N-terminal sequence QPSALT (other, not shown: large carriers)
chain: B1 chain with A1Q, A2P, Q3S, G4A, M5L, S6T
notes: as for B1
B21: phage-displayed CX3CL1 mutant with N-terminal sequence QPRALP (other, not shown: large carriers)
chain: B1 chain with A1Q, A2P, Q3R, G4A, M5L, S6P
notes: as for B1
B22: phage-displayed CX3CL1 mutant with N-terminal sequence QPVALA (other, not shown: large carriers)
chain: B1 chain with A1Q, A2P, Q3V, G4A, M5L, S6A
notes: as for B1
B23: phage-displayed CX3CL1 mutant with N-terminal sequence GPQAMS (other, not shown: large carriers)
chain: B1 chain with A1G, A2P, G4A
notes: as for B1
B24: phage-displayed CX3CL1 mutant with N-terminal sequence QVQGVT (other, not shown: large carriers)
chain: B1 chain with A1Q, A2V, M5V, S6T
notes: as for B1
B25: phage-displayed CX3CL1 mutant with N-terminal sequence QPSGMS (other, not shown: large carriers)
chain: B1 chain with A1Q, A2P, Q3S
notes: as for B1
B26: phage-displayed CX3CL1 mutant with N-terminal sequence QPVAVS (other, not shown: large carriers)
chain: B1 chain with A1Q, A2P, Q3V, G4A, M5V
notes: as for B1
B27: phage-displayed CX3CL1 mutant with N-terminal sequence ILDNGVA (other, not shown: large carriers)
chain: ILDNGVAKCNITCSKMTSKIPVALLIHYQQNQASCGKRAIILETRQHRLFCADPKEQWVKDAMQHLDRQAAALTRNG
notes: Selected phage clone (antagonist selection); not tested singly
B28: phage-displayed CX3CL1 mutant with N-terminal sequence SLDHGLS (other, not shown: large carriers)
chain: B27 chain with I1S, N4H, V6L, A7S
notes: as for B27
B29: phage-displayed CX3CL1 mutant with N-terminal sequence QRDSVLA (other, not shown: large carriers)
chain: B27 chain with I1Q, L2R, N4S, G5V, V6L
notes: as for B27
B30: phage-displayed CX3CL1 mutant with N-terminal sequence ILDGGVS (other, not shown: large carriers)
chain: B27 chain with N4G, A7S
notes: as for B27
B31: phage-displayed CX3CL1 mutant with N-terminal sequence ILGRDVA (other, not shown: large carriers)
chain: B27 chain with D3G, N4R, G5D
notes: as for B27
B32: phage-displayed CX3CL1 mutant with N-terminal sequence WLSQGLA (other, not shown: large carriers)
chain: B27 chain with I1W, D3S, N4Q, V6L
notes: as for B27
B33: phage-displayed CX3CL1 mutant with N-terminal sequence QPLFAVA (other, not shown: large carriers)
chain: B27 chain with I1Q, L2P, D3L, N4F, G5A
notes: as for B27
B34: phage-displayed CX3CL1 mutant with N-terminal sequence ILDLGLS (other, not shown: large carriers)
chain: B27 chain with N4L, V6L, A7S
notes: as for B27
B35: phage-displayed CX3CL1 mutant with N-terminal sequence FLQSDVA (other, not shown: large carriers)
chain: B27 chain with I1F, D3Q, N4S, G5D
notes: as for B27
B36: phage-displayed CX3CL1 mutant with N-terminal sequence TLPQGLA (other, not shown: large carriers)
chain: B27 chain with I1T, D3P, N4Q, V6L
notes: as for B27
B37: phage-displayed CX3CL1 mutant with N-terminal sequence ILDLGLT (other, not shown: large carriers)
chain: B27 chain with N4L, V6L, A7T
notes: as for B27
B38: phage-displayed CX3CL1 mutant with N-terminal sequence TLAQGLP (other, not shown: large carriers)
chain: B27 chain with I1T, D3A, N4Q, V6L, A7P
notes: as for B27
B39: phage-displayed CX3CL1 mutant with N-terminal sequence SLIPVVP (other, not shown: large carriers)
chain: B27 chain with I1S, D3I, N4P, G5V, A7P
notes: as for B27
B40: phage-displayed CX3CL1 mutant with N-terminal sequence QLFALS (other, not shown: large carriers)
chain: B1 chain with A1Q, A2L, Q3F, G4A, M5L
notes: as for B27
B41: phage-displayed CX3CL1 mutant with N-terminal sequence VQSVLS (other, not shown: large carriers)
chain: B1 chain with A1V, A2Q, Q3S, G4V, M5L
notes: as for B27
B42: phage-displayed CX3CL1 mutant with N-terminal sequence QSLVLP (other, not shown: large carriers)
chain: B1 chain with A1Q, A2S, Q3L, G4V, M5L, S6P
notes: as for B27

One assay deals with T1, human CX3CR1 receptor. The assay can be described thus: phage display selection on HEK-CX3CR1 cells, recovery of endocytosed phages.
On to B1, for which the binding result is listed as “binds”.

B2: the binding result was “binds”. B3: the binding result is listed as “binds”. Same read-out and setting: under B4 stands “binds”. On the same count and under the same terms, as for B5, the entry is “binds”; as for B6, “binds”. Same read-out and setting: as for B7, the entry is “binds”; as for B8, “binds”; as for B9, “binds”. Turning to B10, the binding result is reported as “binds”. On the same count and under the same terms, under B11 stands “binds”. Still for that read-out and setting: under B12 stands “binds”; under B13, “binds”. Same read-out and setting: as for B14, the entry is “binds”; as for B15, “binds”; as for B16, “binds”. For the molecule B17, the binding result is on record as “binds”.

With B18, the binding result is listed as “binds”. On to B19, for which the binding result was “binds”. On the same count and under the same terms, as for B20, the entry is “binds”; as for B21, “binds”. B22: the binding result is “binds”. Still for that read-out and setting: under B23 stands “binds”; under B24, “binds”. B25: the binding result is recorded as “binds”. On the same count and under the same terms, as for B26, the entry is “binds”.

For a further assay, the target named is T1, human CX3CR1 receptor. The assay can be described thus: phage display selection on HEK-CX3CR1 cells, elution with soluble CX3CL1. The procedure: Phage particles are represented as cylinders (encapsulated phage genome) with multiple heads (pIII-CX3CL1 mutant fusion). […] (3) Stringent washing was used to remove nonspecifically bound phage. (4) An excess of soluble CX3CL1 (sCX3CL1) was added to remove surface-associated phage. Eluted phages were allowed to infect E. coli, and stocks of selected phages were prepared to be used in a new round of selection (steps 1 to 4).
A phage library of CX3CL1 mutants (10¹⁰ CFU) was directly incubated with 5.10⁶ HEK-CX3CR1 or HEK-CCR5 cells growing in 25 cm² tissue culture flasks (Becton Dickinson, Le Pont de Claix, France) at 37° C. at 5% CO₂ in 5 ml of supplemented RPMI-1640 medium. After 1 h, cells were washed 10 times at room temperature with 10 ml of phosphate-buffered saline (PBS) and then scraped from the plate into 10 ml of PBS-0.5% BSA. Cells were then pelleted and incubated for 20 min on ice in elution buffer consisting of an excess of soluble CX3CL1 (10 μM in 100 μl PBS-BSA). Cells were centrifuged (1000×g for 5 min) and supernatant was mixed with log-phase E. coli TG1 for production and purification of stock phage to be used in further rounds of selection, as described by Hartley et al. (2003, J Virol 77, 6637-44).
On to B27, for which the binding result is given as “binds”. Still for that read-out and setting: as for B28, the entry is “binds”; as for B29, “binds”. On the same count and under the same terms, as for B30, the entry is “binds”.

Turning to B31, the binding result is “binds”.

Regarding B32, the binding result was “binds”. B33: the binding result is “binds”. The same measure, in the same setting: as for B34, the entry is “binds”. As for B35, the binding result is “binds”. Turning to B36, the binding result is “binds”. On the same count and under the same terms, as for B37, the entry is “binds”.

For the molecule B38, the binding result is given as “binds”. The same measure, in the same setting: as for B39, the entry is “binds”; as for B40, “binds”. On the same count and under the same terms, as for B41, the entry is “binds”. Still for that read-out and setting: under B42 stands “binds”.

Source of the values: US20120141538A1 (UNIVERSITE PIERRE ET MARIE CURIE PARIS VI, published 2012).
